The supplement of paper PMC6757056
± gives the standard deviation of the averaged measurements.

B1: library; a variant is named by its letters at N, in order (parent)
chain: GCUGUCACCGGUGUAUUACCCUAGUGGUCGACCGGUCUGAUGAGUCUNNNNNNAGACGAAACAGC

Legend:
[1] = variants of: B1; assay: FACS-Seq fitted mean relative fluorescence mCherry/BFP without ligand (log10 relative fluorescence); ligand: hypoxanthine (xanthine aptamer); higher = higher reporter protein expression; conditions: HEK293T, ligand present: no
Outline: (§1)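 Genomic DNA from 6 mCherry/BFP sort bins was PCR-amplified, barcoded and sequenced on MiSeq. The sorted cells were enriched HEK293T libraries, lentivirally transduced with a ribozyme-switch mCherry reporter and an EF1α-BFP marker, incubated with or without ligand for 48 h. Fluorescence derives from a normal fit to the bin counts. The fit was on log10(mCherry/BFP), and means were scaled to five spiked-in control ribozymes.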

[2] = variants of: B1; assay: normalized RNA/DNA level with ligand (relative to sTRSVctl = 100) (log10 (% of sTRSVctl)); ligand: hypoxanthine (xanthine aptamer); higher = less ribozyme self-cleavage, higher mRNA level; conditions: ligand concentration (+) RNA-Seq: 5 mM, HEK293T, reporter: mCherry (pCS4076), ligand present: yes
Description: (§2)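 Hammerhead (sTRSV) ribozyme switch libraries with a ligand aptamer grafted on stem I and a randomized N4-6 loop II, cloned into the 3' UTR of mCherry and transiently transfected into HEK293T cells; RNA-Seq 72 h post transfection with ligand added 1 h before transfection; RNA read count / plasmid DNA read count normalized to the non-cleaving sTRSVctl (x100), log10; sequences with >100 DNA reads. FACS-Seq: lentiviral library sorted into 6 bins after 48 h ligand, log-normal fit mean of mCherry/BFP scaled to controls. Printed sequences are partial switch sequences.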

[3] = variants of: B1; assay: normalized RNA/DNA level without ligand (relative to sTRSVctl = 100) (log10 (% of sTRSVctl)); ligand: hypoxanthine (xanthine aptamer); higher = less ribozyme self-cleavage, higher mRNA level; conditions: HEK293T, reporter: mCherry (pCS4076), ligand present: no
Description: as §2

[4] = variants of: B1; assay: FACS-Seq fitted mean relative fluorescence mCherry/BFP with ligand (log10 relative fluorescence); ligand: hypoxanthine (xanthine aptamer); ligand concentration (+) FACS-Seq: 5 mM; higher = higher reporter protein expression; conditions: HEK293T, ligand present: yes
Outline: as §1

Variant	FACS-Seq fitted mean (log10) [1]	normalized RNA/DNA level with ligand (log10) [2]	normalized RNA/DNA level without ligand (log10) [3]	FACS-Seq fitted mean (log10) [4]
ACGCGC	0.307 ± 0.06	1.88 ± 0.052	1.54 ± 0.019	0.7 ± 0.02
CCAUAU	0.286 ± 0.014	1.96 ± 0.029	1.82 ± 0.057	0.542 ± 0.01
CCAUAC	0.1516 ± 0.0013	1.9 ± 0.031	1.836 ± 0.011	0.283 ± 0.013
GCCUGA	0.389 ± 0.04	1.99 ± 0.022	1.81 ± 0.038	0.6019 ± 0.0038
UCAUUU	0.631 ± 0.012	1.96 ± 0.052	1.91 ± 0.031	0.769 ± 0.024
GCAUGG	0.196 ± 0.083	1.83 ± 0.052	1.33 ± 0.063	0.701 ± 0.049
GCAUGC	-0.393 ± 0.035	1.926 ± 0.01	1.74 ± 0.14	-0.314 ± 0.05
CCGAGG	0.00201 ± 0.0053	1.839 ± 0.0063	1.37 ± 0.038	0.423 ± 0.024
CCGAGA	0.353 ± 0.076	1.87 ± 0.042	1.51 ± 0.046	0.648 ± 0.061
ACCUAG	-0.692 ± 0.013	1.86 ± 0.03	1.58 ± 0.016	-0.308 ± 0.028
ACCUAC	0.113 ± 0.032	1.92 ± 0.035	1.85 ± 0.05	0.264 ± 0.013
GCGAAU	-0.142 ± 0.009	1.833 ± 0.015	1.417 ± 0.013	0.291 ± 0.022
GCGAAG	-0.383 ± 0.014	1.46 ± 0.12	0.925 ± 0.14	0.417 ± 0.06
GCGAAC	0.0198 ± 0.0047	1.711 ± 0.0065	1.13 ± 0.044	0.61 ± 0.033
GCGAAA	0.172 ± 0.045	1.878 ± 0.0072	1.49 ± 0.019	0.404 ± 0.021
UCCUAC	0.76 ± 0.022	2.01 ± 0.096	1.88 ± 0.076	0.751 ± 0.058
ACCUGG	0.3055 ± 0.0017	1.914 ± 0.011	1.55 ± 0.021	0.817 ± 0.071
ACCUGA	0.156 ± 0.046	1.96 ± 0.021	1.79 ± 0.049	0.323 ± 0.057
GCAUCG	0.0876 ± 0.11	1.964 ± 0.018	1.506 ± 0.0042	0.53188 ± 0.00023
CCCUUA	0.315 ± 0.0096	2.002 ± 0.019	1.905 ± 0.014	0.279 ± 0.083
ACCCGG	0.195 ± 0.055	1.89 ± 0.034	1.48 ± 0.019	0.714 ± 0.058
UCCCGU	0.434 ± 0.043	1.934 ± 0.0021	1.703 ± 0.015	0.554 ± 0.048
UCCCAC	0.0771 ± 0.00054	1.894 ± 0.014	1.56 ± 0.017	0.177 ± 0.043
UCCCAG	0.261 ± 0.0092	1.84 ± 0.0087	1.35 ± 0.023	0.506 ± 0.016

Variant	FACS-Seq fitted mean (log10) [1]	normalized RNA/DNA level with ligand (log10) [2]	normalized RNA/DNA level without ligand (log10) [3]	FACS-Seq fitted mean (log10) [4]
GCCGUU	-0.297 ± 0.0052	1.978 ± 0.019	1.92 ± 0.051	0.037 ± 0.093
CCGACU	0.195 ± 0.058	1.989 ± 0.013	1.82 ± 0.038	0.381 ± 0.0067
CCGACG	0.527 ± 0.0072	1.9241 ± 0.0017	1.685 ± 0.0014	0.6331 ± 0.0049
CCGACC	0.287 ± 0.081	2.08 ± 0.082	1.85 ± 0.063	0.555 ± 0.015
GCCUAA	0.363 ± 0.14	1.94 ± 0.071	1.8319 ± 0.00042	0.558 ± 0.036
GCCUAG	0.303 ± 0.03	1.89 ± 0.097	1.5 ± 0.12	0.678 ± 0.037
UCAUGA	0.457 ± 0.055	1.885 ± 0.014	1.5 ± 0.032	0.53 ± 0.061
ACCGUA	0.247 ± 0.0083	1.93 ± 0.065	1.822 ± 0.014	0.474 ± 0.038
GCCGGU	0.478 ± 0.08	1.957 ± 0.01	1.982 ± 0.01	0.744 ± 0.043
ACGAAG	-0.023 ± 0.0073	1.49 ± 0.041	1.072 ± 0.0031	0.501 ± 0.023
ACGAAA	0.129 ± 0.049	1.86 ± 0.039	1.47 ± 0.056	0.425 ± 0.036
ACGAAU	0.0248 ± 0.013	1.77 ± 0.0059	1.19 ± 0.025	0.504 ± 0.01
ACAUGG	0.335 ± 0.022	1.87 ± 0.035	1.29 ± 0.027	0.631 ± 0.1
ACAUGA	0.3098 ± 0.0019	1.91 ± 0.019	1.66 ± 0.026	0.509 ± 0.021
ACAUGU	0.399 ± 0.057	1.91 ± 0.052	1.65 ± 0.061	0.567 ± 0.024
GCAUUG	0.25 ± 0.015	1.88 ± 0.0068	1.4 ± 0.022	0.602 ± 0.062
GCGAUG	0.314 ± 0.033	1.77 ± 0.028	1.24 ± 0.092	0.754 ± 0.064
GCGAUU	-0.0877 ± 0.0032	1.88 ± 0.06	1.65 ± 0.026	0.166 ± 0.016
GCGAUC	0.2339 ± 0.00091	1.87 ± 0.041	1.46 ± 0.038	0.601 ± 0.025
ACCGCC	0.708 ± 0.051	1.938 ± 0.0023	1.879 ± 0.0089	0.737 ± 0.025
ACCGCG	0.331 ± 0.028	1.826 ± 0.015	1.5 ± 0.097	0.608 ± 0.026
CCAUUC	-0.142 ± 0.078	2.022 ± 0.0033	1.9 ± 0.07	0.309 ± 0.014
UCCAAG	0.264 ± 0.033	1.897 ± 0.015	1.54 ± 0.036	0.457 ± 0.044
UCCAAA	0.00132 ± 0.058	1.937 ± 0.0063	1.804 ± 0.0049	0.0172 ± 0.041

Variant	FACS-Seq fitted mean (log10) [1]	normalized RNA/DNA level with ligand (log10) [2]	normalized RNA/DNA level without ligand (log10) [3]	FACS-Seq fitted mean (log10) [4]
ACCAAU	0.003 ± 0.21	1.9 ± 0.091	1.74 ± 0.026	0.157 ± 0.038
ACCAAA	0.2 ± 0.028	1.938 ± 0.011	1.8 ± 0.018	0.487 ± 0.046
ACCAAC	0.0939 ± 0.026	1.93 ± 0.025	1.883 ± 0.0074	0.317 ± 0.049
CCAUGA	0.311 ± 0.11	1.986 ± 0.016	1.788 ± 0.016	0.414 ± 0.064
CCAUGG	0.39 ± 0.0048	1.85 ± 0.07	1.47 ± 0.018	0.611 ± 0.053
CCGAUU	0.52 ± 0.04	1.963 ± 0.019	1.78 ± 0.027	0.524 ± 0.036
ACCCUG	0.60276 ± 0.00041	1.875 ± 0.0043	1.411 ± 0.0069	0.786 ± 0.12
GCGCGG	-0.388 ± 0.022	1.81 ± 0.072	1.3 ± 0.021	0.464 ± 0.018
GCAUAA	0.705 ± 0.011	1.92 ± 0.03	1.801 ± 0.015	0.6261 ± 0.0017
GCAUAU	0.326 ± 0.025	1.93 ± 0.031	1.736 ± 0.0026	0.329 ± 0.014
CCCUGA	0.263 ± 0.023	1.92 ± 0.031	1.88 ± 0.039	0.308 ± 0.011
ACCAUU	0.187 ± 0.05	1.971 ± 0.015	1.839 ± 0.007	0.395 ± 0.049
ACCAUA	-0.27 ± 0.052	1.85 ± 0.049	1.849 ± 0.01	-0.201 ± 0.13
ACAUAA	0.531 ± 0.011	1.899 ± 0.0086	1.79 ± 0.021	0.532 ± 0.029
ACAUAG	0.305 ± 0.026	1.84 ± 0.072	1.52 ± 0.024	0.522 ± 0.046
GCCAAG	0.432 ± 0.0083	1.829 ± 0.011	1.4 ± 0.051	0.713 ± 0.047
GCCAAA	0.458 ± 0.073	1.95 ± 0.042	1.813 ± 0.017	0.612 ± 0.1
ACGACA	0.53 ± 0.013	1.912 ± 0.013	1.638 ± 0.016	0.613 ± 0.031
ACGACG	0.162 ± 0.0022	1.82 ± 0.045	1.26 ± 0.019	0.706 ± 0.059
ACGACU	0.28 ± 0.024	1.84 ± 0.039	1.59 ± 0.0056	0.447 ± 0.037
UCGCAA	0.477 ± 0.093	1.9 ± 0.032	1.6 ± 0.06	0.599 ± 0.058
UCGCAG	0.221 ± 0.04	1.918 ± 0.015	1.65 ± 0.078	0.46 ± 0.083
CCCACA	0.706 ± 0.022	1.99 ± 0.086	1.862 ± 0.0068	0.739 ± 0.032
CCCUAA	0.693 ± 0.022	1.94 ± 0.022	1.907 ± 0.011	0.837 ± 0.06
